Experimental data taken from the supplement of paper PMC10065799, “High-throughput profiling of sequence recognition by tyrosine kinases and SH2 domains using bacterial peptide display” (eLife, 2023).

Legend:
[1] = target: c-Src SH2; experiment: SH2 binding enrichment of the phosphorylated peptide, bacterial display (enrichment ratio); higher = better substrate or ligand; peptides without Tyr show the background
[2] = target: Grb2 SH2 (UniProt P62993); experiment: as above
[3] = target: SHP2-C SH2; experiment: as above
[4] = target: MERTK (UniProt Q12866); experiment: phosphorylation enrichment, bacterial display (enrichment ratio); higher = better substrate or ligand; peptides without Tyr show the background
[5] = target: Hck (UniProt P08631); experiment: as above
[6] = system: AncSZ; experiment: as above
[7] = target: EPHB2 (UniProt P29323); experiment: as above
[8] = system: c-Abl (mouse); experiment: as above
[9] = target: Fyn (UniProt P06241); experiment: as above
[10] = system: c-Src; experiment: as above
[11] = target: Jak2 (UniProt O60674); experiment: as above
[12] = target: EPHB1 (UniProt P54762); experiment: as above
[13] = target: FGFR3 (UniProt P22607); experiment: as above
[14] = target: FGFR1 (UniProt P11362); experiment: as above
[15] = target: Fes (UniProt P07332); experiment: as above
[16] = system: Fer (mouse); experiment: as above
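Wherever SH2 binding enrichment of the phosphorylated peptide, bacterial display is given: peptide library displayed on the E. coli surface as eCPX fusions, selected cells deep-sequenced, score is each peptide's frequency after selection divided by its frequency in the input.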
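Wherever phosphorylation enrichment, bacterial display is given: 11-residue human phosphosite peptides and single-mutation variants displayed on the E. coli surface, counted by deep sequencing, each peptide's frequency after selection divided by its frequency in the unselected input library; frequency after pTyr selection over input frequency; kinase dosed for 20-30% of maximal phosphorylation in three min.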

Chain of FGFR1 (P11362 whole entry, looked up): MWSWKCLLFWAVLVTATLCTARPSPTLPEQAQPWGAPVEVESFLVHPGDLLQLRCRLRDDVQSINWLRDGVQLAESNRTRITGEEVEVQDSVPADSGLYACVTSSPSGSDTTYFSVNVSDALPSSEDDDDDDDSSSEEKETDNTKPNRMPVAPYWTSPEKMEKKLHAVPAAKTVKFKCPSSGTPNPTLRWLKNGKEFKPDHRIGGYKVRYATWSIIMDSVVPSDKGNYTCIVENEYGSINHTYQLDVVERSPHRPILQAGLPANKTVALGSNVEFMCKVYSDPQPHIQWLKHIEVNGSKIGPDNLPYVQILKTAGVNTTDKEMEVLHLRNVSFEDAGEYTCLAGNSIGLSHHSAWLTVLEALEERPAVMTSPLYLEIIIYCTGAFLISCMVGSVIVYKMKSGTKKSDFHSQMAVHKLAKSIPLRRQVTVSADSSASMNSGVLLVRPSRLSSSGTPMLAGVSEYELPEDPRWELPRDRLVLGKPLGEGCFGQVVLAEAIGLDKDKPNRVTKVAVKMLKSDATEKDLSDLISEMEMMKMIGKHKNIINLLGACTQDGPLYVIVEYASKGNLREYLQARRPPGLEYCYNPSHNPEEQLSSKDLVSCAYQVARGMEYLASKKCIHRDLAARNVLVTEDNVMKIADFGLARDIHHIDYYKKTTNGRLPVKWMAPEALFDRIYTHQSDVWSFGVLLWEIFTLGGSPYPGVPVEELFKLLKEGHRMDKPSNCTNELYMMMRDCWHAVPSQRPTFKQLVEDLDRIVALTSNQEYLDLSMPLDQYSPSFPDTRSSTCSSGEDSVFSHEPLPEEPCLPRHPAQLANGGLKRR
Chain of EPHB2 (P29323 whole entry, looked up): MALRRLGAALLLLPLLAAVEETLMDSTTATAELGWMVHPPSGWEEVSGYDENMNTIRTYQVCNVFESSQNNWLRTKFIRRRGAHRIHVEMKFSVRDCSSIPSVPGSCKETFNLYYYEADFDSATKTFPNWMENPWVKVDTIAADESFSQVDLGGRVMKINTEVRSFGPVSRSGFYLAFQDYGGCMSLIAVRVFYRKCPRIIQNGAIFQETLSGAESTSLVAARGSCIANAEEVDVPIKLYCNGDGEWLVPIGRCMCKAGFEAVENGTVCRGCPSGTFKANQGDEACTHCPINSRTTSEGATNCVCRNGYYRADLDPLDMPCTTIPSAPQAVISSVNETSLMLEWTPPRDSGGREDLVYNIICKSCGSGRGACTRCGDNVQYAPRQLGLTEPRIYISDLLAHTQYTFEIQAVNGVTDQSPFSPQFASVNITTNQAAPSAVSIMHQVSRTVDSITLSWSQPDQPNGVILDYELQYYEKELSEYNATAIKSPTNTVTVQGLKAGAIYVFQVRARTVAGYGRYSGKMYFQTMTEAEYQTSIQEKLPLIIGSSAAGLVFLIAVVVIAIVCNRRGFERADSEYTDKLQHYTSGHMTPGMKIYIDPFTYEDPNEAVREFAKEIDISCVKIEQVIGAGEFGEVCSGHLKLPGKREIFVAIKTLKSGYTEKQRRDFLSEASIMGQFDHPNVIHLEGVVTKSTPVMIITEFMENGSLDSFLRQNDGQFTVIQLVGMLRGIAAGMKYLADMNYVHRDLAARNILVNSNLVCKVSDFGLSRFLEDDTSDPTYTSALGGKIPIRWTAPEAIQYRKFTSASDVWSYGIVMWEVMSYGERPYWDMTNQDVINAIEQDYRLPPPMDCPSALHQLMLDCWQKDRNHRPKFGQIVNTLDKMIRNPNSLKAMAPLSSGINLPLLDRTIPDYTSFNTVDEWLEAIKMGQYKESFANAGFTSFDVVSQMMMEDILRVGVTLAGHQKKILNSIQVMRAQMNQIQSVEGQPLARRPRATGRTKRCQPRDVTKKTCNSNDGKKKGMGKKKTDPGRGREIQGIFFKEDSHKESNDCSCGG
Chain of Hck (P08631 whole entry, looked up): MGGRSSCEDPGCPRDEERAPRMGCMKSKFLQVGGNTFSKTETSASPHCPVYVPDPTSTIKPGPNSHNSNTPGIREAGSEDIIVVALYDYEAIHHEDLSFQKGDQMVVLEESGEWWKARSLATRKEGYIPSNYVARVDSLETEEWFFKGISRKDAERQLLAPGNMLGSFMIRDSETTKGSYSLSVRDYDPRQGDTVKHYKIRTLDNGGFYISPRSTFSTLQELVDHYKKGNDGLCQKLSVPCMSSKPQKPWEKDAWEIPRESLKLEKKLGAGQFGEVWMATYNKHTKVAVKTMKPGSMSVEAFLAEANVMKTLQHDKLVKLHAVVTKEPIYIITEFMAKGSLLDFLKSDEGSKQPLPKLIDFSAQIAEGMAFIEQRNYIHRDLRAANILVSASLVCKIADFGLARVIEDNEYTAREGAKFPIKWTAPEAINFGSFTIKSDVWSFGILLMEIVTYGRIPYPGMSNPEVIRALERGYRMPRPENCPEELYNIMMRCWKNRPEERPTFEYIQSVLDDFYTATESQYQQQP
Chain of Jak2 (O60674 whole entry, looked up): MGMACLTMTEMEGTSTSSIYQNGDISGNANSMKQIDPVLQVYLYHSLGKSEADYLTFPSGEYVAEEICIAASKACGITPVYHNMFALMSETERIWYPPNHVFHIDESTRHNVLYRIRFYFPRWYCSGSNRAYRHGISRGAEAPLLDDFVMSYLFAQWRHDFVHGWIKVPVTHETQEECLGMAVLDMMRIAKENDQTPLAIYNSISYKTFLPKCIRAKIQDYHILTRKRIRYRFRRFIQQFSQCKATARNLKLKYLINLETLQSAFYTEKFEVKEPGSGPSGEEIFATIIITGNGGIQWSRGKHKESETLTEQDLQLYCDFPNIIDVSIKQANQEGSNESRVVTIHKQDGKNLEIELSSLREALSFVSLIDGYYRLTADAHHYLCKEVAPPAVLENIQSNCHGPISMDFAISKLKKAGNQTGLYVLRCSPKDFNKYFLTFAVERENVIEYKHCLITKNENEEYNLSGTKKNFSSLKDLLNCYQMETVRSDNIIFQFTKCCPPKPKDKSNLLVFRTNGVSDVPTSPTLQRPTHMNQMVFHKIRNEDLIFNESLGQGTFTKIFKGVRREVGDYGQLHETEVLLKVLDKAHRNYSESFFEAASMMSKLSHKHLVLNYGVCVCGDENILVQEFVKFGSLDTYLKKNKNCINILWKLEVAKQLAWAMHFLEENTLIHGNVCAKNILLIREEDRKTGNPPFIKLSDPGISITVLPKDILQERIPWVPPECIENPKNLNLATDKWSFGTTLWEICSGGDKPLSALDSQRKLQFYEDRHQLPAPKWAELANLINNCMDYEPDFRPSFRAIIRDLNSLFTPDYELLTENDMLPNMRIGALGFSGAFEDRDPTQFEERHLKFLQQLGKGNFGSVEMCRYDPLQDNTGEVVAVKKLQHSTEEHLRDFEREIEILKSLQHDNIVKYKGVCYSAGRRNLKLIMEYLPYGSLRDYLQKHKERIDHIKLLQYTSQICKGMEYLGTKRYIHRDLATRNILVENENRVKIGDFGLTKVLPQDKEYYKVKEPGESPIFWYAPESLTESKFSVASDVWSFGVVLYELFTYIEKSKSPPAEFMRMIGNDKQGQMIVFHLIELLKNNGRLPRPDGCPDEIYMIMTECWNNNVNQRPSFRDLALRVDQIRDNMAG
Chain of Fes (P07332 whole entry, looked up): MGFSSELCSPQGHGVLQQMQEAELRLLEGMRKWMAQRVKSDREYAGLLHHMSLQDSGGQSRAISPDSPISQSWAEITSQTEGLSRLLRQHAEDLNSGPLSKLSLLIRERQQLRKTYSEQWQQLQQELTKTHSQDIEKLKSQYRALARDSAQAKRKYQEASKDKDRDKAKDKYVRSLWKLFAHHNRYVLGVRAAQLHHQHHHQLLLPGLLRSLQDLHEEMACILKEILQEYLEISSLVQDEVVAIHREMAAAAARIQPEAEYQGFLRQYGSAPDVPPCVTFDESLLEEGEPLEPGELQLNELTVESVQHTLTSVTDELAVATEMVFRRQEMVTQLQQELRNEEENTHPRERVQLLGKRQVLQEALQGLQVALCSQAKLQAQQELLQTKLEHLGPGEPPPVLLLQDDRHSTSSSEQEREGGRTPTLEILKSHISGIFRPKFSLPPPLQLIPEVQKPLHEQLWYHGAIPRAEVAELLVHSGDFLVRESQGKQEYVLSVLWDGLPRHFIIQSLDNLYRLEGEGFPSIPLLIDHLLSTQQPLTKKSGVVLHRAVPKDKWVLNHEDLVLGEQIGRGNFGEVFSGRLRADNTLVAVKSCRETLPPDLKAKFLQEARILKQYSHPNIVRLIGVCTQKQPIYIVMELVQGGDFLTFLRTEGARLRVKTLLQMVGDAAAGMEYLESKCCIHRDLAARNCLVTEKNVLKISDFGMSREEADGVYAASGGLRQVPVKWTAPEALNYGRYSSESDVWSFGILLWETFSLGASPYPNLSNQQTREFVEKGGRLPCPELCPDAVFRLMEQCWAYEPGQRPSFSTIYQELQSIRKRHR
Chain of Fyn (P06241 whole entry, looked up): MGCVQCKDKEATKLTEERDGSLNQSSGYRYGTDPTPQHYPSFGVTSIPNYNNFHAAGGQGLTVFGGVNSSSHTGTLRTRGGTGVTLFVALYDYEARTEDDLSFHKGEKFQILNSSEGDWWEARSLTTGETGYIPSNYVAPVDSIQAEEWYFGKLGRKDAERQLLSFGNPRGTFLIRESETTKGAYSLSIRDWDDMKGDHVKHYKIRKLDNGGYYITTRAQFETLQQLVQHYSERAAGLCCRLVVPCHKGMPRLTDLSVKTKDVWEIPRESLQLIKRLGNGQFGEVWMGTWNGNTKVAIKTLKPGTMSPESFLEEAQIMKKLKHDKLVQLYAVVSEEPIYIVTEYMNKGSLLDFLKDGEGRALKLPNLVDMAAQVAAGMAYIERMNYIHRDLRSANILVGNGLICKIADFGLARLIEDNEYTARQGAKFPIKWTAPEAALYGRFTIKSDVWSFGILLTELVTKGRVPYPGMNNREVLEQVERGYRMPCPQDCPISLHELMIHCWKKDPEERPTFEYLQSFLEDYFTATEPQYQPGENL

Sequence | SH2 binding enrichment [1] | SH2 binding enrichment [2] | SH2 binding enrichment [3] | phosphorylation enrichment [4] | phosphorylation enrichment [5] | phosphorylation enrichment [6] | phosphorylation enrichment [7] | phosphorylation enrichment [8] | phosphorylation enrichment [9] | phosphorylation enrichment [10] | phosphorylation enrichment [11] | phosphorylation enrichment [12] | phosphorylation enrichment [13] | phosphorylation enrichment [14] | phosphorylation enrichment [15] | phosphorylation enrichment [16]
CTTIHFNFMCN [TP53_Y234_Y234F_YF] | 1.93 | 2.01 | 2.02 | 0.525 | 0.582 | 1.07 | 0.656 | 0.824 | 0.484 | 0.507 | 1.33 | 0.604 | 0.83 | 0.614 | 1.31 | 0.569
GPRKAYELSQR [SETX_Y1297] | 0.422 | 0.982 | 0.707 | 0.409 | 0.389 | 0.464 | 0.328 | 0.492 | 0.401 | 0.412 | 0.558 | 0.343 | 0.355 | 0.422 | 0.539 | 0.381
ACDALYPPGPP | 0.632 | 1.07 | 1.11 | 0.43 | 0.391 | 0.774 | 0.432 | 0.566 | 0.482 | 0.444 | 0.615 | 0.485 | 0.522 | 0.482 | 0.861 | 0.469
RESVSYLFSHV [PRPS1_Y311_G306R] | 0.654 | 0.907 | 2.06 | 0.492 | 0.549 | 1 | 0.901 | 1.06 | 1.41 | 0.742 | 1.15 | 0.588 | 0.814 | 0.532 | 1.12 | 0.479
AVDDKYSRREE [SART1_Y685_I681V] | 0.586 | 1.02 | 0.925 | 0.426 | 0.533 | 0.887 | 0.516 | 0.478 | 0.567 | 0.427 | 0.679 | 0.453 | 0.581 | 0.457 | 0.977 | 0.458
VFAANYFKLLG [ROR2_Y645_D644N_YF] | 1.03 | 0.991 | 0.985 | 1.13 | 0.526 | 0.872 | 0.648 | 0.73 | 0.58 | 0.56 | 5.33 | 0.645 | 1.58 | 2.44 | 1.04 | 0.472
SRGSSYNSIPK [FLNC_Y2625_S2626N] | 0.559 | 0.818 | 0.657 | 0.525 | 0.286 | 0.53 | 0.356 | 0.524 | 0.297 | 0.486 | 0.587 | 0.417 | 0.383 | 0.33 | 0.642 | 0.328
RLGVTYEQALA [MAP2_Y996_G991R] | 0.871 | 0.848 | 0.539 | 0.737 | 0.56 | 1.36 | 1.81 | 0.965 | 0.77 | 1.05 | 1.15 | 0.729 | 0.825 | 0.721 | 1 | 0.535
SEDSEYFRAFE [CASQ2_Y178_K180R_YF] | 0.439 | 0.874 | 0.559 | 0.476 | 0.524 | 1.99 | 0.591 | 1.31 | 0.545 | 0.693 | 1.26 | 0.633 | 0.854 | 0.586 | 1.48 | 0.511
QTEAQYRFIFM [PTPN11_Y511_YF] | 0.355 | 0.627 | 0.777 | 0.58 | 0.688 | 1.18 | 0.467 | 1.82 | 0.612 | 0.702 | 1.78 | 0.774 | 1.02 | 0.893 | 1.92 | 0.785
FPKAHYHWLVL [APTX_Y214_R213H_YF] | 1.54 | 1.86 | 1.7 | 0.619 | 0.444 | 0.819 | 0.491 | 0.716 | 0.447 | 0.396 | 0.864 | 0.448 | 1.87 | 2.69 | 1.29 | 0.645
MVSLFYGTAIF [OR10C1_Y251_L255I] | 0.46 | 0.653 | 0.756 | 0.63 | 0.995 | 1.41 | 0.666 | 1.22 | 1.1 | 1.92 | 1.4 | 0.619 | 0.819 | 0.477 | 1.53 | 0.937
VMAALYGRLYE [BTD_Y536_T532M] | 1.52 | 1.3 | 1.53 | 3 | 5.58 | 0.795 | 1.42 | 0.8 | 5.87 | 5.01 | 0.864 | 0.961 | 0.617 | 0.468 | 0.963 | 1.38
NIKKEYTKMVQ [PMS2_Y181_A182T] | 0.784 | 0.983 | 0.456 | 0.452 | 0.385 | 0.494 | 0.333 | 0.502 | 0.378 | 0.426 | 0.49 | 0.394 | 0.439 | 0.808 | 0.492 | 0.27
QMVGMYASSSM [AVPR2_Y124_Y128S] | 0.685 | 0.869 | 0.756 | 0.504 | 0.766 | 0.647 | 0.403 | 0.807 | 0.438 | 0.567 | 0.635 | 0.73 | 0.435 | 0.477 | 0.645 | 0.472
KLASTYREAAT [DEAF1_Y483_H479L] | 0.418 | 0.787 | 0.508 | 0.344 | 0.318 | 0.353 | 0.337 | 0.432 | 0.371 | 0.273 | 0.309 | 0.343 | 0.351 | 0.352 | 0.494 | 0.267
